Results as given in US20240270846A1 (published 2024).

Molecular target: T1, CD3 epsilon homodimer protein (UniProt P07766 23-126)
T1 construct: Construct of the homodimer protein is not described; also called CD3 (CD3 epsilon)
Assay: SPR (Biacore T200), CD3 epsilon homodimer on CM4 chip, one-arm antibody as analyte; ratio to unaltered CE115HA000;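 note: surface plasmon resonance run at 25 °C with HBS-EP+ as running buffer, CD3 epsilon homodimer attached by amine coupling, antibody passed over as analyte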

T1 sequence (P07766 23-126): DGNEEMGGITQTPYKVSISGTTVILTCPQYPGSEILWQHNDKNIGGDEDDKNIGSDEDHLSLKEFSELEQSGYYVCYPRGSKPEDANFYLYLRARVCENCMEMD

B1: CE115HA000 D101H one-arm antibody (antibody, human IgG1, kappa, L234A L235A, N297A, name in Kabat numbering)
heavy: QVQLVESGGGVVQPGRSLRLSCAASGFTFSNAWMHWVRQAPGKGLEWVAQIKAKSNNYATYYAESVKGRFTISRDDSKNSLYLQMNSLKTEDTAVYYCRYVHYGAYYGVHAWGQGTTVTVSSASTKGPSVFPLAPSSKSTSGGTAALGCLVKDYFPEPVTVSWNSGALTSGVHTFPAVLQSSGLYSLSSVVTVPSSSLGTQTYICNVNHKPSNTKVDKKVEPKSCDKTHTCPPCPAPEAAGGPSVFLFPPKPKDTLMISRTPEVTCVVVDVSHEDPEVKFNWYVDGVEVHNAKTKPREEQYASTYRVVSVLTVLHQDWLNGKEYKCKVSNKALPAPIEKTISKAKGQPREPQVYTLPPSRCELTKNQVSLSCAVKGFYPSDIAVEWESNGQPENNYKTTPPVLDSDGSFFLVSKLTVDKSRWQQGNVFSCSVMHEALHNHYTQKSLSLSPDYKDDDDK
chain: EPKSSDKTHTCPPCPAPELLGGPSVFLFPPKPKDTLMISRTPEVTCVVVDVSHEDPEVKFNWYVDGVEVHNAKTKPREEQYNSTYRVVSVLTVLHQDWLNGKEYKCKVSNKALPAPIEKTISKAKGQPREPQVCTLPPSRDELTKNQVSLWCLVKGFYPSDIAVEWESNGQPENNYKTTPPVLDSDGSFFLYSKLTVDKSRWQQGNVFSCSVMHEALHNRYTQKSLSLSP
light: DIVMTQSPLSLPVTPGEPASISCRSSQSLVHSNRNTYLHWYQQKPGQAPRLLIYKVSNRFSGVPDRFSGSGSGTDFTLKISRVEAEDVGVYYCGQGTQVPYTFGQGTKLEIKRTVAAPSVFIFPPSDEQLKSGTASVVCLLNNFYPREAKVQWKVDNALQSGNSQESVTEQDSKDSTYSLSSTLTLSKADYEKHKVYACEVTHQGLSSPVTKSFNRGEC
notes: one-arm antibody
For B1, the “KD ratio (KD value of CE115HA000/KD value of the altered form)” value was 0.91.

B2: CE115HA000 D101I one-arm antibody (antibody, human IgG1, kappa, L234A L235A, N297A, name in Kabat numbering)
heavy: QVQLVESGGGVVQPGRSLRLSCAASGFTFSNAWMHWVRQAPGKGLEWVAQIKAKSNNYATYYAESVKGRFTISRDDSKNSLYLQMNSLKTEDTAVYYCRYVHYGAYYGVIAWGQGTTVTVSSASTKGPSVFPLAPSSKSTSGGTAALGCLVKDYFPEPVTVSWNSGALTSGVHTFPAVLQSSGLYSLSSVVTVPSSSLGTQTYICNVNHKPSNTKVDKKVEPKSCDKTHTCPPCPAPEAAGGPSVFLFPPKPKDTLMISRTPEVTCVVVDVSHEDPEVKFNWYVDGVEVHNAKTKPREEQYASTYRVVSVLTVLHQDWLNGKEYKCKVSNKALPAPIEKTISKAKGQPREPQVYTLPPSRCELTKNQVSLSCAVKGFYPSDIAVEWESNGQPENNYKTTPPVLDSDGSFFLVSKLTVDKSRWQQGNVFSCSVMHEALHNHYTQKSLSLSPDYKDDDDK
chain: EPKSSDKTHTCPPCPAPELLGGPSVFLFPPKPKDTLMISRTPEVTCVVVDVSHEDPEVKFNWYVDGVEVHNAKTKPREEQYNSTYRVVSVLTVLHQDWLNGKEYKCKVSNKALPAPIEKTISKAKGQPREPQVCTLPPSRDELTKNQVSLWCLVKGFYPSDIAVEWESNGQPENNYKTTPPVLDSDGSFFLYSKLTVDKSRWQQGNVFSCSVMHEALHNRYTQKSLSLSP
light: DIVMTQSPLSLPVTPGEPASISCRSSQSLVHSNRNTYLHWYQQKPGQAPRLLIYKVSNRFSGVPDRFSGSGSGTDFTLKISRVEAEDVGVYYCGQGTQVPYTFGQGTKLEIKRTVAAPSVFIFPPSDEQLKSGTASVVCLLNNFYPREAKVQWKVDNALQSGNSQESVTEQDSKDSTYSLSSTLTLSKADYEKHKVYACEVTHQGLSSPVTKSFNRGEC
notes: one-arm antibody
For B2, the “KD ratio (KD value of CE115HA000/KD value of the altered form)” value was 1.73.
